The text below walks through data of patent US20100254992A1 (published 2010).

For assay [1], the target named is T1, cynomolgus monkey MCP-1 (cynomolgus monkey, UniProt P61274 24-99).
T1 construct: also called cyno MCP-1; cyno CCL-2
The experiment in a line: BioVeris, Cyno MCP-1 Kd. Here is the method:
(§1) Affinity determination in solution was basically performed as described in the literature (Friguet et al., 1985). In order to improve the sensitivity and accuracy of the SET method, it was transferred from classical ELISA to ECL based BioVeris technology (Haenel et al., 2005, accepted for publication in Analytical Biochemistry). 1 mg/ml goat-anti-human (Fab)₂ or goat-anti-mouse IgG, Fc fragment specific antibodies (Jackson Immuno Research) were labelled with BV-tag™ NHS-Ester (Bioveris Europe, Witney, Oxfordshire, UK) according to manufacturer's instructions. The experiments were carried out in polypropylene microtiter plates and PBS pH 7.4 with 0.5% BSA and 0.02% Tween 20 as assay buffer. Unlabeled antigen was diluted in 4ⁿ series: For human and cyno MCP-1 a concentration range of 10 pM to 40 nM and for cross-reactivity controls (Eotaxin and MCP-2) a concentration range of 40 pM to 160 nM was chosen. Wells without antigen were used to determine Smax values. After addition of 100 pM Fab or IgG (final concentration in 75 μL final volume), the mixture was incubated for 2 hours at RT. Subsequently a mixture of 25 μl Dynabeads (0.4 mg/ml M-280 Streptavidin, DYNAL, Hamburg), coated with 0.25 μg/ml biotinylated MCP-1 (K69) and BV-tag labeled detection antibody in a final dilution of 1:4000 for anti-human Fab or 1:2000 for anti-mouse IgG were added per well.
(§2) Solution Equilibrium Titration Using BioVeris. As an alternative method for sensitive KD determinations, the solution equilibrium titration (SET) using BioVeris technology was performed. Monovalent dissociation constants were calculated by means of appropriate fit models for Fab and IgG. This method was suitable for affinity measurement and cross-reactivity studies. All selected 16 binders were analyzed by solution equilibrium titration (SET) using BioVeris (Table 5 and Table 6) and these affinity values were regarded as the final affinity values.

The target of assay [2] is T2, Human Monocyte Chemoattractant Protein-1 (MCP-1) (human, UniProt P13500 24-99, 125I label on the radioligand form; letters are the unlabelled wild-type protein).
T2 construct: also called CCL-2; CCL2
T2 sequence (P13500 24-99 limits assumed): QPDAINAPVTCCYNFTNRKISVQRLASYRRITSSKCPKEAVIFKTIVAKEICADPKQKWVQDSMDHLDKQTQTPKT
The experiment in a line: BioVeris solution equilibrium titration, Fab, rh MCP-1. Here is the method:
as §1, §2

In assay [3] the target is T2, Human Monocyte Chemoattractant …. The experiment in a line: IGEN (BioVeris), MCP-1 Kd. Here is the method:
as §1, §2

Assay [4] shares this target. Briefly: 125I-MCP-1 binding to CCR2 on THP-1 cells, radioligand competition. A general note: In a radioligand displacement assay an active substance lowers the binding of a labelled ligand.
The target is the same in assay [5]. Briefly: cell-based or functional assay.
The next assay deals with T3, human MCP-2 (human, UniProt P80075 24-99).
T3 construct: also called CCL8
T3 sequence (looked up): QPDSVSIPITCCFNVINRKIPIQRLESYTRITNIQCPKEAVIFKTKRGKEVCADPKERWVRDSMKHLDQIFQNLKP
The experiment in a line: Biacore, IgG capture mode. A general note: In SPR one partner is held on a chip, and binding of the other changes the refractive index at the surface.

The target of the next assay is T4, human Eotaxin 2 (human, UniProt O00175 27-104, limits assumed).
T4 sequence (looked up): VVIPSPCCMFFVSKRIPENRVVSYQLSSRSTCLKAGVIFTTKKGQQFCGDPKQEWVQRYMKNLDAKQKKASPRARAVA
Briefly: Biacore, IgG capture mode.

A further assay deals with human Eotaxin 1 (human, UniProt P51671 24-97). Briefly: Biacore, IgG capture mode.
Chain of human Eotaxin 1 (P51671 24-97 limits assumed): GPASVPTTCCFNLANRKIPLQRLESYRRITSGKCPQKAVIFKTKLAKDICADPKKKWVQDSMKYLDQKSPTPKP
The next assay concerns the target T5, human MCP-4 (human, UniProt Q99616 24-98, limits assumed).
T5 construct: also called CCL13
Briefly: Biacore, IgG capture mode.

The target of the next assay is T6, human MCP-3 (human, UniProt P80098 24-99).
T6 construct: also called CCL7
T6 sequence (P80098 24-99 limits assumed): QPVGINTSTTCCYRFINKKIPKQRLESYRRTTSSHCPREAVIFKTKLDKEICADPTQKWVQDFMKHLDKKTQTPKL
Briefly: Biacore, IgG capture mode.

The target in a further assay is T7, human Eotaxin 3 (human, UniProt Q9Y258 24-94).
T7 sequence (looked up): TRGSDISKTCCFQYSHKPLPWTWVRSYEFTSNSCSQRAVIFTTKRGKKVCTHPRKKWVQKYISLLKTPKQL
The experiment in a line: Biacore, IgG capture mode.

Assay [6] concerns the target T1, cynomolgus monkey MCP-1. The experiment in a line: BioVeris solution equilibrium titration, Fab, cyno MCP-1. Here is the method: as §1, §2
The target in assay [7] is T1, cynomolgus monkey MCP-1. Briefly: BioVeris solution equilibrium titration, IgG1, cyno MCP-1. Here is the method: as §1, §2
The target of assay [8] is T2, Human Monocyte Chemoattractant …. The experiment in a line: BioVeris solution equilibrium titration, IgG1, rh MCP-1. Here is the method:
as §1, §2

T5 sequence (Q99616 24-98 limits assumed): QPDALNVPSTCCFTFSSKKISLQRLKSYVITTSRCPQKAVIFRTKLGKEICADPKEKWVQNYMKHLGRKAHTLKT
T1 sequence (P61274 24-99 limits assumed): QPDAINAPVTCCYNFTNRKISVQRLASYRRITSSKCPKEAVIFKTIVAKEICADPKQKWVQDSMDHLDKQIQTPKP

B1: MOR03781 Fab (Fab, V domains shown)
VH: QVELVQSGAEVKKPGSSVKVSCKASGGTFSSYGISWVRQAPGQGLEWMGGIIPIFGTANYAQKFQGRVTITADESTSTAYMELSSLRSEDTAVYYCARYDGIYGELDFWGQGTLVTVSS
VL: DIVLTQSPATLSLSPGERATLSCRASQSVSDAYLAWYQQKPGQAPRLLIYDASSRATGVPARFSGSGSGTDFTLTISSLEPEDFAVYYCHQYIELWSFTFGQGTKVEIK
notes: MOR03471 derivative (L-CDR3); Fab with C-terminal FLAG and 6x His tags; also called MOR3781; MOR3781k
By Kd is commonly meant the constant that tells how readily two partners part at equilibrium. As a reminder, the IC50 is the concentration that inhibits the measured activity by half. In the case of B1, the Kd with cynomolgus monkey MCP-1 [1] is 10 pM; in assay [2] it was 30 pM; in [3] it was 30 pM. In assay [4], the IC50 came out at 180 pM. The “Inhibition of Ca2+ Mobilization IC50” value in assay [5] turned out to be 21800 pM.

B2: MOR03849 IgG (antibody, V domains shown)
VH: QVELVQSGAEVKKPGSSVKVSCKASGGTFSSYGISWVRQAPGQGLEWMGAINPLAGHTHYAQKFQGRVTITADESTSTAYMELSSLRSEDTAVYYCARYDGIYGELDFWGQGTLVTVSS
VL: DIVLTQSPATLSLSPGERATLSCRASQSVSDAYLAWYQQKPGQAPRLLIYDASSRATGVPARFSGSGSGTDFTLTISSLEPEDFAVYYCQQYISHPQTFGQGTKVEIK
In the case of B2, the binding result with human MCP-2, with human Eotaxin 2, in the assay with human Eotaxin 1, with human MCP-4, in the assay with human MCP-3 and with human Eotaxin 3 was “no binding (tested: 100 nM)” in each case.

B3: MOR03878 Fab (Fab, V domains shown)
VH: QVELVQSGAEVKKPGSSVKVSCKASGGTFSSYGISWVRQAPGQGLEWMGAINPLAGHTHYAQKFQGRVTITADESTSTAYMELSSLRSEDTAVYYCARYDGIYGELDFWGQGTLVTVSS
VL: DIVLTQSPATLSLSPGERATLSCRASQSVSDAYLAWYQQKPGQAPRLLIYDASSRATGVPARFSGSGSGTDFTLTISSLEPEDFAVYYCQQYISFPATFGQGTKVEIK
notes: MOR03471 cross-clone (3822 × 3794); Fab with C-terminal FLAG and 6x His tags; also called MOR3878; MOR3878k
With B3, the Kd (with cynomolgus monkey MCP-1 [1]; in assay [2]; with cynomolgus monkey MCP-1 [6]; in assay [3]) was 320 pM throughout. In addition, the IC50 in assay [4] amounted to 110 pM. Besides, the “Inhibition of Ca2+ Mobilization IC50” value in [5] was 20200 pM.

B4: MOR03850 Fab (Fab, V domains shown)
VH: QVELVQSGAEVKKPGSSVKVSCKASGGTFSSYGISWVRQAPGQGLEWMGAINPLAGHTHYAQKFQGRVTITADESTSTAYMELSSLRSEDTAVYYCARYDGIYGELDFWGQGTLVTVSS
VL: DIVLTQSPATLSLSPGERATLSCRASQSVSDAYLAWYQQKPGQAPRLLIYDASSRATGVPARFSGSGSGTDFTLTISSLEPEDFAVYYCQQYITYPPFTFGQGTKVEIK
notes: MOR03471 cross-clone (3822 × 3819); Fab with C-terminal FLAG and 6x His tags; also called MOR3850; MOR3850k
With B4, the Kd (with cynomolgus monkey MCP-1 [1]; in [2]; with cynomolgus monkey MCP-1 [6]; in assay [3]) was 40 pM throughout. The molecule also displayed an IC50 in assay [4] of 160 pM. For the same molecule, in [5], the “Inhibition of Ca2+ Mobilization IC50” value amounted to 28400 pM.

B5: MOR03878 IgG1 (antibody, V domains shown)
VH: QVELVQSGAEVKKPGSSVKVSCKASGGTFSSYGISWVRQAPGQGLEWMGAINPLAGHTHYAQKFQGRVTITADESTSTAYMELSSLRSEDTAVYYCARYDGIYGELDFWGQGTLVTVSS
VL: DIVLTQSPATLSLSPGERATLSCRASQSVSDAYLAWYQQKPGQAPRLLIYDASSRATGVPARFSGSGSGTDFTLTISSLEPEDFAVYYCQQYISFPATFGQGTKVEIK
notes: Human IgG1; also called MOR3878 IgG1; MOR3878k IgG
Turning to B5, the dissociation constant Kd was 230 pM in the assay with cynomolgus monkey MCP-1 [1], 230 pM with cynomolgus monkey MCP-1 [7], 270 pM in [8] and 270 pM in assay [3]. Besides, the binding result in the assay with human Eotaxin 2, with human MCP-4, with human MCP-3 and with human Eotaxin 3 was “no binding (tested: 100 nM)” throughout. This molecule showed an IC50 in assay [4] of 30 pM. In assay [5], the “Inhibition of Ca2+ Mobilization IC50” value turned out to be 6700 pM.

B6: MOR03885 IgG (antibody, V domains shown)
VH: QVELVQSGAEVKKPGSSVKVSCKASGGTFSSYGISWVRQAPGQGLEWMGAINPLAGHTHYAQKFQGRVTITADESTSTAYMELSSLRSEDTAVYYCARYDGIYGELDFWGQGTLVTVSS
VL: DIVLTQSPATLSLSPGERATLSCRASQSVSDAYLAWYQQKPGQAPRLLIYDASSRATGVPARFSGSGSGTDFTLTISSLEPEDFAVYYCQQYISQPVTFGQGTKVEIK
B6: the binding result with human MCP-2, with human Eotaxin 2, with human Eotaxin 1, with human MCP-4, with human MCP-3 and with human Eotaxin 3 was “no binding (tested: 100 nM)” in each case.

B7: MOR03899 Fab (Fab, V domains shown)
VH: QVELVQSGAEVKKPGSSVKVSCKASGGTFSSYGISWVRQAPGQGLEWMGAINPLAGHTHYAQKFQGRVTITADESTSTAYMELSSLRSEDTAVYYCARYDGIYGELDFWGQGTLVTVSS
VL: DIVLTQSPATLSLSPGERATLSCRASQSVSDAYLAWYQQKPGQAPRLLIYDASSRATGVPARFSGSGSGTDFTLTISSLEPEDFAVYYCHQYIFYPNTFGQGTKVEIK
notes: MOR03471 cross-clone (3822 × 3876); Fab with C-terminal FLAG and 6x His tags; also called MOR3899; MOR3899k
For B7, the Kd was determined as 490 pM with cynomolgus monkey MCP-1 [1], 810 pM in assay [2], 490 pM in the assay with cynomolgus monkey MCP-1 [6] and 810 pM in assay [3]. This molecule had a concentration for half-maximal inhibition (IC50) in assay [4] of 130 pM. Moreover, the “Inhibition of Ca2+ Mobilization IC50” value in [5] was determined as 17500 pM.

B8: MOR03899 IgG1 (antibody, V domains shown)
VH: QVELVQSGAEVKKPGSSVKVSCKASGGTFSSYGISWVRQAPGQGLEWMGAINPLAGHTHYAQKFQGRVTITADESTSTAYMELSSLRSEDTAVYYCARYDGIYGELDFWGQGTLVTVSS
VL: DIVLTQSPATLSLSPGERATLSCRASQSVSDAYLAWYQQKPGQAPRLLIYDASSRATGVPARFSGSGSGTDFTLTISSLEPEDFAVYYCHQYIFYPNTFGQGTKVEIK
notes: Human IgG1; also called MOR3899 IgG1; MOR3899k IgG
As to B8, the Kd with cynomolgus monkey MCP-1 [1] was determined as 360 pM; with cynomolgus monkey MCP-1 [7], 360 pM; in assay [8], 340 pM; in assay [3], 340 pM. Besides, the binding result with human Eotaxin 2, with human MCP-4, with human MCP-3 and with human Eotaxin 3 was “no binding (tested: 100 nM)” each time. The IC50 in assay [4] is 50 pM. Moreover, the “Inhibition of Ca2+ Mobilization IC50” value in assay [5] was found to be 5850 pM.

B9: MOR03781 IgG1 (antibody, V domains shown)
VH: QVELVQSGAEVKKPGSSVKVSCKASGGTFSSYGISWVRQAPGQGLEWMGGIIPIFGTANYAQKFQGRVTITADESTSTAYMELSSLRSEDTAVYYCARYDGIYGELDFWGQGTLVTVSS
VL: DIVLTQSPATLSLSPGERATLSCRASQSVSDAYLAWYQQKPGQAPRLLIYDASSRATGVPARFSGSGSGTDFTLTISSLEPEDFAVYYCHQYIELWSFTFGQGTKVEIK
notes: Human IgG1; also called MOR3781 IgG1; MOR3781k IgG
For B9, the dissociation constant (Kd) with cynomolgus monkey MCP-1 [1] is 20 pM; with cynomolgus monkey MCP-1 [7], 16 pM; in assay [8] it was 20 pM; in assay [3], 20 pM. The binding result in the assay with human Eotaxin 2, with human Eotaxin 1, with human MCP-4, with human MCP-3 and with human Eotaxin 3 was “no binding (tested: 100 nM)” each time. In addition, in [4], the 50% inhibitory concentration (IC50) came out at 20 pM. Besides, the “Inhibition of Ca2+ Mobilization IC50” value in assay [5] turned out to be 10900 pM.

B10: MOR03850 IgG1 (antibody, V domains shown)
VH: QVELVQSGAEVKKPGSSVKVSCKASGGTFSSYGISWVRQAPGQGLEWMGAINPLAGHTHYAQKFQGRVTITADESTSTAYMELSSLRSEDTAVYYCARYDGIYGELDFWGQGTLVTVSS
VL: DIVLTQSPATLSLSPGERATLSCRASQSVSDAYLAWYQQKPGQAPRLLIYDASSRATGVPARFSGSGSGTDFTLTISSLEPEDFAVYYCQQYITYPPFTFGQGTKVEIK
notes: Human IgG1; also called MOR3850 IgG1; MOR3850k IgG
For the molecule B10, the Kd came out at 10 pM with cynomolgus monkey MCP-1 [1], 21 pM in the assay with cynomolgus monkey MCP-1 [7], 11 pM in assay [8] and 10 pM in assay [3]. Besides, the binding result in the assay with human Eotaxin 2, with human MCP-4, with human MCP-3 and with human Eotaxin 3 was “no binding (tested: 100 nM)” in each case. In addition, in [4], the IC50 came to 50 pM. Further, the “Inhibition of Ca2+ Mobilization IC50” value in assay [5] was 9470 pM.
